B1: Chromodomain-helicase-DNA-binding protein 3, residues 374 to 426; numbered along this chain, Q12873 (parent)
chain: YETDHQDYCEVCQQGGEIILCDTCPRAYHLVCLDPELDRAPEGKWSCPHCEKE

Variants of: B1
Assay: abundance fitness (aPCA) (normalised: wild type 0, dead -1); higher = more abundant; growth selection in yeast, the domain comes from the species named
Conditions: Homo sapiens

Abundance fitness, by site and new letter:
Y28: K -0.578; D -0.593; A 0.122; I 0.013; R -0.256; P -0.837; M 0.219; H 0.148; G -0.191; Q -0.445; F -0.145; C -0.189; L -0.059; E -0.48; W 0.143; V -0.284; T -0.203; N -0.377
V31: S -0.061; W -0.26; F -0.09; I -0.245; N -0.314; G -0.094; Y -0.297; E -0.229; A 0.158; L -0.17; Q -0.012; C -0.254; K -0.132; M -0.03; T -0.3; H 0.038; D -0.18
H29: K -0.912; E -0.872; A -0.745; C 0.029; L -0.763; T -0.846; I -1.09; F -1.07; V -0.745; W -0.656; P -0.801; D -0.615; N -0.383; R -0.786; Y -1.1; S -0.852; G -0.844
D22: I -0.021; G -0.191; W -0.013; Q 0.557; N -0.008; P -0.109; H -0.388; S 0.048; M 0.008; A -0.31; R 0.053; L -0.171; V -0.204; F -0.344; T -0.222; Y -0.142; C -0.229
C32: T -0.948; P -0.957; R -1.06; M -0.94; A -1.09; N -0.797; E -0.663; L -0.986; S -0.68; D -0.718; W -0.502; K -0.958; F -1.05; Q -0.821; H -0.163; I -1.06; V -1.2
P35: H -0.052; Y 0.015; E -0.306; M -0.095; N -0.196; K -0.183; S -0.068; I -0.3; D 0.039; L -0.11; G -0.044; C -0.117; W -0.167; V 0.029; T -0.013
T23: D -0.308; I -0.189; P -0.596; K -0.696; S 0.032; N 0.122; W -0.631; M 0.024; G -0.248; F -0.035; H -0.146; Q -0.455; Y 0.05; R -0.179; E -0.077; A -0.337; V -0.162; L -0.22
P25: C 0.04; R -0.235; Q -0.39; D -0.482; I -0.261; A 0.092; N -0.204; M -0.227; W -0.144; H -0.249; K -0.385; T -0.004; S -0.116; F -0.021
R26: N -0.169; E -0.123; M -0.106; I -0.445; P -0.655; C -0.669; G -0.046; A -0.202; L 0.155; Q 0.417; V -0.363; S 0.087; D -0.159; Y -0.148; H -0.17
I18: T 0.131; W -0.152; Y 0.162; V -0.297
E36: C 0.182; P -0.039; V -0.018; F -0.083; N 0.143; G -0.009; H -0.15; R 0.018; W -0.478; D -0.507; I -0.145; S -0.335; Q -0.193; A -0.029; T -0.172; M -0.024; L -0.114; Y -0.405
D34: Y -0.327; L -0.083; I -0.383; A -0.198; S -0.127; K -0.079; N -0.189; W -0.747; M -0.494; C -0.316; E -0.011; R -0.197; Q -0.112; F -0.287; G -0.156; H -0.385; V -0.1; P -0.089
D38: N -0.552; S -0.09; T -0.169; V 0.011; A -0.035; L -0.216; R -0.352; F -0.082; Y -0.522; K -0.518; G -0.142; M -0.416; H 0.066; W -0.319; Q -0.326; C -0.259; P -0.129
C21: W -0.831; G -0.637; I -0.818; H -0.806; K -0.846; T -0.381; D -0.868; V -0.57; A -0.778; N -0.903; L -0.74; Y -0.692; E -1.15; P -0.984; M -0.901; S -0.569; Q -0.822
L33: K -0.663; V -0.182; M -0.148; C 0.072; H -0.146; A -0.12; N -0.326; F -0.449; D -0.755; S -0.286; T -0.208; E -0.365; P -0.427; R -0.39; G 0.07; Y -0.133; I -0.214
L20: Y 0.102; T 0.262; D 0.015; G 0.208; I 0.076; W -0.205; K 0.081; C 0.01; P 0.402; S 0.171; R 0.149; F 0.037; V -0.078; E -0.003; M 0.047; Q -0.143; N 0.101
A27: K -0.407
L37: D -0.228; Y 0.073; H -0.037; F -0.426; I -0.191; N -0.189; T -0.275; G -0.108; R -0.094; S -0.295; Q -0.21; P -0.154; E -0.732; W -0.298; C -0.142; K -0.116; V -0.143
L30: M 0.067; V -0.014; Q -0.189; Y 0.098; G -0.014; N -0.197; S -0.202; F -0.038; H -0.059; D -0.264; T -0.067; I -0.27; A 0.053; C 0.072; E -0.155; K -0.121; P 0.021
C24: W -1.12; Y -1.34; D -0.754; P -1.11; A -0.799; H -0.907; K -0.919; Q -0.898; E -1.16; T -0.687; I -0.9; F -1.05; G -0.962; S -0.617; R -0.951; V -1.08; M -0.914
R39: A 0.068; P -0.084; I 0.149; D -0.138; M -0.009; G -0.123; N 0.034; L -0.156; C -0.221; H -0.248; F -0.254; Q -0.182
I19: Y 0.117; H -0.111; M 0.313; D -0.248; T 0.051; S -0.162; K 0.19; G -0.177; Q 0.068; R -0.101; F -0.277; N 0.167; L 0.093; V -0.153

From the Human Domainome abundance scans (Beltran et al. 2025)
